Assay results from US20240209084A1 (CYTOARM, published 2024).
Values belong to the binder of their own block, whether it stands above or below them.

Key:
CD33 = target: T1, CD33 (human, UniProt P20138 18-364); test: flow cytometry on HL-60 cells (CD33+), FITC goat anti-human IgG Fab
T1 construct: whole, on cells; also called CD33^+ human acute myeloid leukemia (HL-60)
Procedure: (§1) Samples were analyzed with FITC conjugated Goat anti-Human IgG Fab antibody and flow cytometry.

HGFR = target: T2, HGFR (human, UniProt P08581 25-1390); test: flow cytometry on A549 cells (HGFR+), FITC goat anti-human IgG Fab
T2 construct: whole, on cells; also called cMET; hepatocyte growth factor receptor
T2 sequence (P08581 25-1390): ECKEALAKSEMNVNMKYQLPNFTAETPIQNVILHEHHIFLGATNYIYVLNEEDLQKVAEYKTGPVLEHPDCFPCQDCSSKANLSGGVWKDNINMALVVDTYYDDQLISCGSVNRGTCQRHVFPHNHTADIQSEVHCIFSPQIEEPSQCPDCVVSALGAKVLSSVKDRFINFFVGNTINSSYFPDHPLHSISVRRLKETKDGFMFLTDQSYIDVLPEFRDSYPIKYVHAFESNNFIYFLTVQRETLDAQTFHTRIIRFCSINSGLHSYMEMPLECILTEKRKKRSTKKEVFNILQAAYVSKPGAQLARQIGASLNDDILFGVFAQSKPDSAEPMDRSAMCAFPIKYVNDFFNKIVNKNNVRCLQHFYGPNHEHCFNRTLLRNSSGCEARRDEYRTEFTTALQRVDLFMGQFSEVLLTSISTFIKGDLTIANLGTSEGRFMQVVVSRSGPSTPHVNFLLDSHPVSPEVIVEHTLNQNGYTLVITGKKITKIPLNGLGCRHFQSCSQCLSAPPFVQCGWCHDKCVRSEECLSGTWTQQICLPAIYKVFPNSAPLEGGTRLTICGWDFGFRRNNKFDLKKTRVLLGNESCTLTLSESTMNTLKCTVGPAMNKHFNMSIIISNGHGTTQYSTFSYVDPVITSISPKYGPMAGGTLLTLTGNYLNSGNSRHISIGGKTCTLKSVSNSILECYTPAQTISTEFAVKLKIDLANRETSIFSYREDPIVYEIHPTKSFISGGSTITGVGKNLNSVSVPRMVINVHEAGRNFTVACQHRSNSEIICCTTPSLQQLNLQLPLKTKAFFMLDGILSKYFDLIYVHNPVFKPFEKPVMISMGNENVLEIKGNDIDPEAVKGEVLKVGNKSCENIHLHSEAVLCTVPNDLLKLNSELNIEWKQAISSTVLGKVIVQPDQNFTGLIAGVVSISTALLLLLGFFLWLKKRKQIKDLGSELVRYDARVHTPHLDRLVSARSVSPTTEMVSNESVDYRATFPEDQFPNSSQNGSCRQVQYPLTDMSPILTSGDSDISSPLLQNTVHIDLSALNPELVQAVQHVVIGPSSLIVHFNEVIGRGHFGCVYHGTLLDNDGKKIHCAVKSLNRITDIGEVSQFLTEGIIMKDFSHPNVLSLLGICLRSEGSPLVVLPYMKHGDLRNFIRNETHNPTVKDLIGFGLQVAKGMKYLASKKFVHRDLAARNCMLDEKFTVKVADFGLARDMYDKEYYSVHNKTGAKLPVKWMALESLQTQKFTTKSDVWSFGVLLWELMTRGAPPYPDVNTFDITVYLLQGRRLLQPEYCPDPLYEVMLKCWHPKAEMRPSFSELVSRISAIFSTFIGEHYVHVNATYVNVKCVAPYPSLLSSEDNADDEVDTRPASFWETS
Procedure: as §1

CD47 = target: T3, CD47 (human, UniProt Q08722 19-323); test: flow cytometry on MCF-7/HER2 cells (CD47+), FITC goat anti-human IgG Fab
T3 construct: whole, on cells; also called CD47^+ breast cancer (MCF7/HER2)
Procedure: as §1

T1 sequence (P20138 18-364): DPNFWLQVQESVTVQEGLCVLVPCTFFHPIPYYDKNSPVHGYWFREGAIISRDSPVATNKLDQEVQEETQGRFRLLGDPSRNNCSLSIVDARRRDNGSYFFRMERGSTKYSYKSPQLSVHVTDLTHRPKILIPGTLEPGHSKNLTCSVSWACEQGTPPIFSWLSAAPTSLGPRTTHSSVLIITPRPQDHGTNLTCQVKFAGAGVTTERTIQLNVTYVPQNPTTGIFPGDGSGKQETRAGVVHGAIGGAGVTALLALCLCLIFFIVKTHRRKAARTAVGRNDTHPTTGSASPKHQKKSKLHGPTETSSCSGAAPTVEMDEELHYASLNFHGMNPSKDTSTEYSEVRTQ

binding result (CD33): binds
B1: CTA03Fab/CTAT11scFv (bispecific antibody)
heavy: EVQLLESGGGLVQPGGSLRLSCAASGFTFSSFPMAWVRQAPGKGLEWVSTISTSGGRTYYRDSVKGRFTISRDNSKNTLYLQMNSLRAEDTAVYYCAKFRQYSGGFDYWGQGTLVTVSSASTKGPSVFPLAPSSKSTSGGTAALGCLVKDYFPEPVTVSWNSGALTSGVHTFPAVLQSSGLYSLSSVVTVPSSSLGTQTYICNVNHKPSNTKVDKKVEPKSCGGGSGGGEVQLVQSGAEVKKPGSSVKVSCKASGYTITDSNIHWVRQAPGQSLEWIGYIYPYNGGTDYNQKFKNRATLTVDNPTNTAYMELSSLRSEDTAFYYCVNGNPWLAYWGQGTLVTVSSGGGGSGGGGSGGGGSDIQLTQSPSTLSASVGDRVTITCRASESLDNYGIRFLTWFQQKPGKAPKLLMYAASNQGSGVPSRFSGSGSGTEFTLTISSLQPDDFATYYCQQTKEVPWSFGQGTKVEVK
light: DIQLTQPNSVSTSLGSTVKLSCTLSSGNIENNYVHWYQLYEGRSPTTMIYDDDKRPDGVPDRFSGSIDRSSNSAFLTIHNVAIEDEAIYFCHSYVSSFNVFGGGTKLTVLRQPKAAPSVTLFPPSSEELQANKATLVCLISDFYPGAVTVAWKADSSPVKAGVETTTPSKQSNNKYAASSYLSLTPEQWKSHRSYSCQVTHEGSTVEKTVAPTECS
notes: also called antiCD3Fab/anti-CD33scFv

binding result (HGFR): binds
B2: CTA03Fab/CTAT12scFv (bispecific antibody)
heavy: EVQLLESGGGLVQPGGSLRLSCAASGFTFSSFPMAWVRQAPGKGLEWVSTISTSGGRTYYRDSVKGRFTISRDNSKNTLYLQMNSLRAEDTAVYYCAKFRQYSGGFDYWGQGTLVTVSSASTKGPSVFPLAPSSKSTSGGTAALGCLVKDYFPEPVTVSWNSGALTSGVHTFPAVLQSSGLYSLSSVVTVPSSSLGTQTYICNVNHKPSNTKVDKKVEPKSCGGGSGGGEVQLVESGGGLVQPGGSLRLSCAASGYTFTSYWLHWVRQAPGKGLEWVGMIDPSNSDTRFNPNFKDRFTISADTSKNTAYLQMNSLRAEDTAVYYCATYRSYVTPLDYWGQGTLVTVSSGGGGSGGGGSGGGGSDIQMTQSPSSLSASVGDRVTITCKSSQSLLYTSSQKNYLAWYQQKPGKAPKLLIYWASTRESGVPSRFSGSGSGTDFTLTISSLQPEDFATYYCQQYYAYPWTFGQGTKVEIK
light: B1 light
notes: also called antiCD3Fab/anti-HGFRscFv

binding result (CD47): binds
B3: CTA03Fab/CTAT13scFv (bispecific antibody)
heavy: EVQLLESGGGLVQPGGSLRLSCAASGFTFSSFPMAWVRQAPGKGLEWVSTISTSGGRTYYRDSVKGRFTISRDNSKNTLYLQMNSLRAEDTAVYYCAKFRQYSGGFDYWGQGTLVTVSSASTKGPSVFPLAPSSKSTSGGTAALGCLVKDYFPEPVTVSWNSGALTSGVHTFPAVLQSSGLYSLSSVVTVPSSSLGTQTYICNVNHKPSNTKVDKKVEPKSCGGGSGGGQVQLVQSGAEVKKPGASVKVSCKASGYTFTNYNMHWVRQAPGQRLEWMGTIYPGNDDTSYNQKFKDRVTITADTSASTAYMELSSLRSEDTAVYYCARGGYRAMDYWGQGTLVTVSSGGGGSGGGGSGGGGSDIVMTQSPLSLPVTPGEPASISCRSSQSIVYSNGNTYLGWYLQKPGQSPQLLIYKVSNRFSGVPDRFSGSGSGTDFTLKISRVEAEDVGVYYCFQGSHVPYTFGQGTKLEIK
light: B1 light
notes: also called antiCD3Fab/anti-CD47scFv
